Here are results for 2 substances from publication PMC7881195.

In assay [1] the target is C. elegans PGL-1 N-terminal dimerization domain (NtDD), wild-type (C. elegans). In words: SEC-MALS; C. elegans PGL-1 NtDD wild-type and mutants injected at 1 mg/ml in HNT buffer (20 mM HEPES pH 7.4, 100 mM NaCl, 0.5 mM TCEP) on a SEC 650 sizing column, 0.4 ml/min. In general terms: In gel filtration, larger molecules generally elute earlier.
Assay [2] addresses C. elegans PGL-3 N-terminal dimerization domain (NtDD), wild-type (C. elegans). In words: SEC-MALS; C. elegans PGL-3 NtDD wild-type and mutant, 500 µl at 1 mg/ml in HNT buffer (20 mM HEPES pH 7.5, 100 mM NaCl, 0.5 mM TCEP) on Superdex 75 10/300 GL, 0.5 ml/min, 20 °C.

In general, stoichiometry N refers to the number of molecules, sites or subunits per partner or assembly. The substance “C. elegans PGL-1 N-terminal dimerization domain (NtDD), wild-type (domain or fragment)” came in with a stoichiometry N in assay [1] of 2.

In assay [2], “C. elegans PGL-3 N-terminal dimerization domain (NtDD), wild-type (domain or fragment)” had a stoichiometry N of 2.
